# Assay results reported in paper PMC9978035, “Human uridine 5′-monophosphate synthase stores metabolic potential in inactive biomolecular condensates” (The Journal of Biological Chemistry, 2023).
# What was measured:
# [1] = target: the molecule itself; experiment: SEC; 20 mM Tris pH 7.5, 100 mM NaCl; SEPAX SRT-10-SEC-300 or Superdex 200 columns; MW standards run under the same conditions; also run with 500 μM orotate
# [2] = target: the molecule itself; experiment: AUC; sedimentation at 38,000 rpm, absorbance at 280 nm, 1 mg/ml (WT) or 1.5 mg/ml (mutants) and 1:5 dilutions, SEDFIT continuous sedimentation profiles
# [3] = target: the molecule itself; experiment: cross-linking; SEC fractions in 50.0 mM Na3PO4 pH 8.0, 100.0 mM NaCl, 0.004% glutaraldehyde, quenched at time points up to 2 h, SDS-PAGE
protein,measurement,setting,value
"Human uridine 5′-monophosphate synthase (HsUMPS), wildtype (enzyme, UniProt P11172 1-480, looked up, Human UMP synthase (UMPS), bifunctional enzyme with OPRT and OMPDC domains; codon-optimized human UMPS in pDB-His-MBP between NdeI and XhoI; expected protomer MW 52 kDa; both domains are present and the expected protomer mass of 52 kDa fits the whole protein (surmise); also called human UMPS; UMP synthase; source: E. coli BL21(DE3), purified (amylose resin, on-column TEV cleavage, Ni-NTA, SEC or …)) MAVARAALGPLVTGLYDVQAFKFGDFVLKSGLSSPIYIDLRGIVSRPRLLSQVADILFQTAQNAGISFDTVCGVPYTALPLATVICSTNQIPMLIRRKETKDYGTKRLVEGTINPGETCLIIEDVVTSGSSVLETVEVLQKEGLKVTDAIVLLDREQGGKDKLQAHGIRLHSVCTLSKMLEILEQQKKVDAETVGRVKRFIQENVFVAANHNGSPLSIKEAPKELSFGARAELPRIHPVASKLLRLMQKKETNLCLSADVSLARELLQLADALGPSICMLKTHVDILNDFTLDVMKELITLAKCHEFLIFEDRKFADIGNTVKKQYEGGIFKIASWADLVNAHVVPGSGVVKGLQEVGLPLHRGCLLIAEMSSTGSLATGDYTRAAVRMAEEHSEFVVGFISGSRVSMKPEFLHLTPGVQLEAGGDNLGQQYNSPQEVIGKRGSDIIIVGRGIISAADRLEAAEMYRKAAWEAYLSRLGV",stoichiometry N,[1],2
"HsUMPS D312N (OMPDC active site mutant) (enzyme, human, UniProt P11172 1-480, looked up, Human UMP synthase (UMPS) with the OMPDC active site mutation D312N; same construct as the wildtype; as m1 with the mutation; also called OMPDC mutant; source: E. coli BL21(DE3), purified in a similar fashion as WT; not shown: His6, N-terminal, cleaved; MBP, N-terminal, cleaved) MAVARAALGPLVTGLYDVQAFKFGDFVLKSGLSSPIYIDLRGIVSRPRLLSQVADILFQTAQNAGISFDTVCGVPYTALPLATVICSTNQIPMLIRRKETKDYGTKRLVEGTINPGETCLIIEDVVTSGSSVLETVEVLQKEGLKVTDAIVLLDREQGGKDKLQAHGIRLHSVCTLSKMLEILEQQKKVDAETVGRVKRFIQENVFVAANHNGSPLSIKEAPKELSFGARAELPRIHPVASKLLRLMQKKETNLCLSADVSLARELLQLADALGPSICMLKTHVDILNDFTLDVMKELITLAKCHEFLIFENRKFADIGNTVKKQYEGGIFKIASWADLVNAHVVPGSGVVKGLQEVGLPLHRGCLLIAEMSSTGSLATGDYTRAAVRMAEEHSEFVVGFISGSRVSMKPEFLHLTPGVQLEAGGDNLGQQYNSPQEVIGKRGSDIIIVGRGIISAADRLEAAEMYRKAAWEAYLSRLGV",binding result,[1],binds
"HsUMPS S87T/Q90E (OPRT dimerization-deficient mutant) (enzyme, human, UniProt P11172 1-480, looked up, Human UMP synthase (UMPS) with the double mutation S87T/Q90E at the native OPRT dimer interface; same construct as the wildtype; as m1 with the mutations; also called oligomerization-deficient mutant; source: E. coli BL21(DE3), purified in a similar fashion as WT; not shown: His6, N-terminal, cleaved; MBP, N-terminal, cleaved) MAVARAALGPLVTGLYDVQAFKFGDFVLKSGLSSPIYIDLRGIVSRPRLLSQVADILFQTAQNAGISFDTVCGVPYTALPLATVICTTNEIPMLIRRKETKDYGTKRLVEGTINPGETCLIIEDVVTSGSSVLETVEVLQKEGLKVTDAIVLLDREQGGKDKLQAHGIRLHSVCTLSKMLEILEQQKKVDAETVGRVKRFIQENVFVAANHNGSPLSIKEAPKELSFGARAELPRIHPVASKLLRLMQKKETNLCLSADVSLARELLQLADALGPSICMLKTHVDILNDFTLDVMKELITLAKCHEFLIFEDRKFADIGNTVKKQYEGGIFKIASWADLVNAHVVPGSGVVKGLQEVGLPLHRGCLLIAEMSSTGSLATGDYTRAAVRMAEEHSEFVVGFISGSRVSMKPEFLHLTPGVQLEAGGDNLGQQYNSPQEVIGKRGSDIIIVGRGIISAADRLEAAEMYRKAAWEAYLSRLGV",stoichiometry N,[2],2
"HsUMPS E123Q (OPRT active site mutant) (enzyme, human, UniProt P11172 1-480, looked up, Human UMP synthase (UMPS) with the OPRT active site mutation E123Q; same construct as the wildtype; as m1 with the mutation; also called E123Q OPRT mutant; source: E. coli BL21(DE3), purified in a similar fashion as WT; not shown: His6, N-terminal, cleaved; MBP, N-terminal, cleaved) MAVARAALGPLVTGLYDVQAFKFGDFVLKSGLSSPIYIDLRGIVSRPRLLSQVADILFQTAQNAGISFDTVCGVPYTALPLATVICSTNQIPMLIRRKETKDYGTKRLVEGTINPGETCLIIQDVVTSGSSVLETVEVLQKEGLKVTDAIVLLDREQGGKDKLQAHGIRLHSVCTLSKMLEILEQQKKVDAETVGRVKRFIQENVFVAANHNGSPLSIKEAPKELSFGARAELPRIHPVASKLLRLMQKKETNLCLSADVSLARELLQLADALGPSICMLKTHVDILNDFTLDVMKELITLAKCHEFLIFEDRKFADIGNTVKKQYEGGIFKIASWADLVNAHVVPGSGVVKGLQEVGLPLHRGCLLIAEMSSTGSLATGDYTRAAVRMAEEHSEFVVGFISGSRVSMKPEFLHLTPGVQLEAGGDNLGQQYNSPQEVIGKRGSDIIIVGRGIISAADRLEAAEMYRKAAWEAYLSRLGV",stoichiometry N,[3],2
